Reference: US20170065725A1 (published 2017)

B1: N-terminal mono-PEGylated rhTSH with 40 kD PEG (ligand)
alpha: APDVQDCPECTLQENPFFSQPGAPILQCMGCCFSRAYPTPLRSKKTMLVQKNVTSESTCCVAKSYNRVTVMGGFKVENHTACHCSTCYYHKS
beta: FCIPTEYTMHIERRECAYCLTINTTICAGYCMTRDINGKLFLPKYALSQDVCTYRDFIYRTVEIPGCPLHVAPYFSYPVALSCKCGKCNTDYSDCIHEAIKTNYCTKPQKSYLVGFSV
modifications: One 40 kD aldehyde PEG on an N-terminal amine (alpha Ala1 or beta Phe1; which subunit is not stated). N-glycans at alpha Asn52, Asn78 and beta Asn23. None is carried by the letters.
notes: also called 40 kD N-terminal
B2: Recombinant human TSH (rhTSH), THYROGEN Thyroid Stimulating Hormone (ligand)
alpha: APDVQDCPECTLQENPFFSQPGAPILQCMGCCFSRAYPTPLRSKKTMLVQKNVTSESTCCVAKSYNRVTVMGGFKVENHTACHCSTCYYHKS
beta: B1 beta
modifications: N-linked glycans at alpha Asn52 and Asn78 and beta Asn23; not carried by the letters.
notes: also called TSH control; control TSH; copies: 1 + 1
B3: G22C rhTSH (TSH G22C (alpha)) (ligand)
alpha: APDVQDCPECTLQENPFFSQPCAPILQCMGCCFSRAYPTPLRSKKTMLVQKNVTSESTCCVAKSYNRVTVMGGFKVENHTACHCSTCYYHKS
beta: B1 beta
modifications: Alpha Cys22 may carry a cap after expression; whether the assayed sample was capped is not stated. N-glycans at alpha Asn52, Asn78 and beta Asn23.
notes: Cysteine mutant without PEG, produced in CHO cells; also called alphaG22C TSH
B4: 40 kD linear G22C (PEGylated Cys-mutant TSH) (ligand)
alpha: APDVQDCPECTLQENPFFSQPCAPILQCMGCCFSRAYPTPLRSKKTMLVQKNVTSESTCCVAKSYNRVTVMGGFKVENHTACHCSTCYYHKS
beta: B1 beta
modifications: Chain 1 (alpha) pos 22: Cys carrying a 40 kD linear cysteine-reactive PEG, written C. N-glycans at alpha Asn52, Asn78 and beta Asn23.
notes: also called 40 KD G22C
B5: 40 kD 2-arm PEG G22C (ligand)
alpha: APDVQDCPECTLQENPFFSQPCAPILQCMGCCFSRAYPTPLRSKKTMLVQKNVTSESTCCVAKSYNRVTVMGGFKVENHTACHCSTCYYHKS
beta: B1 beta
modifications: Chain 1 (alpha) pos 22: Cys carrying a 40 kD 2-arm (branched) cysteine-reactive PEG, written C. N-glycans at alpha Asn52, Asn78 and beta Asn23.
B6: 40 kD 4-arm PEG G22C (ligand)
alpha: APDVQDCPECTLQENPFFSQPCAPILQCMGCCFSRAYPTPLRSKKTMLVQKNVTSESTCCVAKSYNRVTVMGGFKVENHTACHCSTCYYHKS
beta: B1 beta
modifications: Chain 1 (alpha) pos 22: Cys carrying a 40 kD 4-arm (branched) cysteine-reactive PEG, written C. N-glycans at alpha Asn52, Asn78 and beta Asn23.

biological target: T1, porcine TSH receptor (immobilized, TSH Receptor Autoantibody 2nd Generation ELISA kit, RSR Limited) (porcine, UniProt Q8SPP9 22-764, limits assumed); test: in vitro TSH receptor binding assay (competition ELISA)
T1 construct: Bought kit plates; the construct is not described
T1 sequence (Q8SPP9 22-764 limits assumed): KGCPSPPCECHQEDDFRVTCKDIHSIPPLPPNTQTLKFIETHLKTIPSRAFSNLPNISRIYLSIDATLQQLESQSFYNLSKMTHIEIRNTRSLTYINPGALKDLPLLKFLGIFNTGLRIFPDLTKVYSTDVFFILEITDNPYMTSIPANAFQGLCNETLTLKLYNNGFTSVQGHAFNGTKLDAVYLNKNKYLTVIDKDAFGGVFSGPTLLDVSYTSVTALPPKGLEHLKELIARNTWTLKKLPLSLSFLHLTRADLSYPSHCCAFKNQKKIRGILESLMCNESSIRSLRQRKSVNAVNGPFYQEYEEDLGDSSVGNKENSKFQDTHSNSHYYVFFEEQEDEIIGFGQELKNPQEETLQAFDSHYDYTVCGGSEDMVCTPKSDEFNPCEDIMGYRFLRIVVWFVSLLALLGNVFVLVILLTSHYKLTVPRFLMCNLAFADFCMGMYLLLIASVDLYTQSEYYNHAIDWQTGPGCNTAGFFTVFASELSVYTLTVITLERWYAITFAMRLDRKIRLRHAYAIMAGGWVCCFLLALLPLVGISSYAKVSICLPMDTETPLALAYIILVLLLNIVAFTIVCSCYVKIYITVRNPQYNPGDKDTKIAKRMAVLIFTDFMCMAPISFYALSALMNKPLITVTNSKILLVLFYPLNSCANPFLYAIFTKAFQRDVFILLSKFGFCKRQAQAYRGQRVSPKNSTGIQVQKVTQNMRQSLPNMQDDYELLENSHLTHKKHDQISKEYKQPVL

| Binder | fold decrease of receptor binding affinity against rhTSH control [fold] |
| --- | --- |
| B1 | 11.1 |

biological target: T1, porcine TSH receptor (immobilized, TSH …); test: competition ELISA; inhibition of biotinylated rhTSH binding to immobilized porcine TSH receptor
Protocol: (§1) Purified PEGylated conjugates were analyzed by in vitro porcine TSH receptor binding assay using the TSH Receptor Autoantibody 2nd Generation ELISA kit from RSR Limited (Kronus, Star, Id.). Instead of using the biotinylated human monoclonal autoantibody to the TSH receptor provided by the kit, we biotinylated Thyrogen® (rhTSH) to use for competitive inhibition of binding to TSH receptor. Binding of biotinylated rhTSH to immobilized porcine TSH receptor was inhibited by either rhTSH control or PEGylated rhTSH conjugates and IC₅₀ values were measured.
(§2) Thyrogen® was biotinylated with 1.7 to 1.8 biotins per protein using the ChromaLink™ Biotin Labeling Reagent according to the manufacturer's protocol (QED Bioscience Inc., San Diego, Calif.) and buffer exchanged into 50 mM sodium phosphate, 150 mM sodium chloride pH 7.0 with a Zeba™ Desalt Spin Column (Thermo Scientific, Rockford, Ill.). In vitro measurement of receptor binding was performed by competition of biotinylated Thyrogen® and PEG-rhTSH conjugate for binding to porcine TSH receptor immobilized onto 96-well plates supplied with the TSH Receptor Autoantibody 2nd Generation ELISA kit from RSR Limited (Kronus, Star, Id.). PEG-rhTSH conjugates were serially diluted 1:5 from 16 μM to 41 pM in assay buffer (100 mM HEPES pH 7.5, 20 mM EDTA, 1% BSA, 0.5% Triton X-100) and mixed 1:1 with biotinylated Thyrogen® diluted 1000-fold in assay buffer. The mixture was added to each receptor-coated well and incubated at 25° C. for 25 minutes. Unbound rhTSH was washed away and streptavidin peroxidase was added at 25° C. for 20 minutes according to the RSR Limited ELISA protocol to determine the amount of biotinylated Thyrogen® bound to the plate. The plate was then washed three times to remove excess unbound streptavidin peroxidase and then tetramethylbenzidine (TMB) was added to each well and incubated in the dark at 25° C. for 30 minutes. The reaction which was quenched with 0.5M sulfuric acid stop buffer and the absorbance of each well was read at 450 nm using a SpectraMax® 340pc plate reader (Molecular Devices, Sunnyvale, Calif.). The data was fit using a sigmoidal dose response equation with GraphPad Prism software to generate IC₅₀ values.

| Binder | IC50 [nM] | fold change (IC50 against rhTSH) [fold] |
| --- | --- | --- |
| B1 | 397 | 10.8 |
| B2 | 36.7 | 1 |

biological target: T1, porcine TSH receptor (immobilized, TSH …); test: as above; remark: another data set of the same source
Protocol: as §1, §2

| Binder | IC50 [nM] | fold change (IC50 against rhTSH) [fold] |
| --- | --- | --- |
| B3 | 41.6 | 1.5 |
| B4 | 248 | 8.9 |
| B5 | 417 | 14.9 |
| B6 | 743 | 26.5 |
| B1 | 319 | 11.4 |
| B2 | 28 | 1 |
